The source of these data is patent US20250154202A1 (published 2025).

Experiment [1] concerns the target T1, biotinylated NbALFA (NanoTag) (biotinylated (site not stated)).
T1 construct: Bought from NanoTag and captured on the SPR chip through biotin; also called NbALFA-nanobody; Nanobody
The experiment in a line: SPR, Biacore T200, biotinylated NbALFA captured on Biotin CAPture chip, peptide as analyte, multi-cycle kinetics, 1:1 model, 25 C. The procedure:
Affinity measurements were performed using a Biacore T200 (GE Healthcare, Biacore T200 control Software 3.2). For affinity measurement, the Biotin CAPture kit, series S (Cytiva Europe, Cat. no. 28920234) was utilized. A freshly docked Biotin CAPture chip was rehydrated overnight in the instrument (standby mode). The following day, the chip surface was conditioned three times with regeneration solution (6 M guanidine-HCl, 0.25 M NaOH) for 60 s at 10 μL/min on flow cell (FC) 1 and FC2. Subsequently, the Biotin CAPture reagent (Cytiva Europe, Cat. no. 29423383) was applied for 300 s at 2 μL/min on FC1 and FC2, followed by capturing of 25 nM biotinylated NbALFA (NanoTag). The immobilization of the Nanobody was done for 180 s at 10 μL/min on FC2 followed by quenching of unbound streptavidin by 0.1 mM biocytin for 60 s and 30 μL/min on both flow cells. […] injections of 10 nM, 5 nM, 2.5 nM, 1.25 nM, 0.625 nM and 0 nM (blank control) of cyclic ALFA variants were performed over both flow cells for 120 s with a flow rate of 40 μL/min, followed by dissociation for 1500 s. After each cycle, the surface was regenerated for 120 s with 10 μL/min using regeneration solution. All measurements were performed at 25° C. using HBS-EP+ buffer (Cytiva Europe, Cat. no BR100669). The control responses from FC1 were subtracted by the sample measurement in FC2 (FC2−FC1) followed by subtraction of the 0 nM blank injection. Resulting binding curves of this multi cycle kinetic experiment were fitted using the Biacore T200 Evaluation Software 3.2 and a 1:1 binding model.

In experiment [2] the target is anti-ALFA VHH. The experiment can be described thus: dose-response curve fit (log(agonist) vs. response, variable slope), FIG. 2; assay format not described.
Chain of anti-ALFA VHH (VHH, as listed by the source): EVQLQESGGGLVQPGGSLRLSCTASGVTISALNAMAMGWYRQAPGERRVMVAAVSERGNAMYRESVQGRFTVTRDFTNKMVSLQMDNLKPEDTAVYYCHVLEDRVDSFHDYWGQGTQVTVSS
In experiment [3] the target is anti-ALFA VHH. The experiment in a line: dose-response curve fit (log(agonist) vs. response, variable slope), FIG. 2; assay format not described; unit from paragraph 98.

Bridge positions count the residues as written; N and C are the ends. Square brackets hold non-standard residues; d marks the D form. Ends that are not written are not given here.

T1 sequence (VHH, as listed by the source): as above

B1: Ac-Pro-Ser-Arg-Leu-Glu-(cyclo6)Glu-Glu-Leu-Arg-(cyclo10)Lys-Arg-Leu-Thr-Glu-NH2 (peptide)
peptide: Ac-PSRLEEELRKRLTE-NH2
modifications: lactam 6-10
SMILES: CC(=O)N1CCC[C@H]1C(=O)N[C@@H](CO)C(=O)N[C@@H](CCCNC(=N)N)C(=O)N[C@@H](CC(C)C)C(=O)N[C@@H](CCC(=O)O)C(=O)N[C@H]1CCC(=O)NCCCC[C@@H](C(=O)N[C@@H](CCCNC(=N)N)C(=O)N[C@@H](CC(C)C)C(=O)N[C@H](C(=O)N[C@@H](CCC(=O)O)C(N)=O)[C@@H](C)O)NC(=O)[C@H](CCCNC(=N)N)NC(=O)[C@H](CC(C)C)NC(=O)[C@H](CCC(=O)O)NC1=O
notes: Cyclic ALFA tag; also called SD15341
As usually defined, the Kd is the concentration at which binding is half-saturated. Read a low Kd as higher affinity. A word on the koff: it is the first-order rate constant of dissociation. The kon is the rate constant with which the complex forms. Low readings indicate slow association, high ones fast association. In the case of B1, in experiment [1], the Kd is 0.0194 nM, the off-rate (koff) was found to be 0.000361 s⁻¹ and the on-rate (kon) is 1.86e+07 M⁻¹ s⁻¹.

B2: Ac-Pro-Ser-Arg-Leu-Glu-(cyclo6)Lys-Glu-Leu-Arg-(cyclo10)Glu-Arg-Leu-Thr-Glu-NH2 (peptide)
peptide: Ac-PSRLEKELRERLTE-NH2
modifications: lactam 6-10
SMILES: CC(=O)N1CCC[C@H]1C(=O)N[C@@H](CO)C(=O)N[C@@H](CCCNC(=N)N)C(=O)N[C@@H](CC(C)C)C(=O)N[C@@H](CCC(=O)O)C(=O)N[C@H]1CCCCNC(=O)CC[C@@H](C(=O)N[C@@H](CCCNC(=N)N)C(=O)N[C@@H](CC(C)C)C(=O)N[C@H](C(=O)N[C@@H](CCC(=O)O)C(N)=O)[C@@H](C)O)NC(=O)[C@H](CCCNC(=N)N)NC(=O)[C@H](CC(C)C)NC(=O)[C@H](CCC(=O)O)NC1=O
notes: Cyclic ALFA tag; also called SD15805
With B2, in experiment [1], binding was characterised by a dissociation constant (Kd) of 0.103 nM, the koff worked out at 0.000964 s⁻¹ and the on-rate constant (kon) worked out at 9.33e+06 M⁻¹ s⁻¹.

B3: Ac-Ser-Arg-Leu-Glu-(cyclo5)Glu-Glu-Leu-Arg-(cyclo9)Lys-Arg-Leu-Thr-Glu-NH2 (peptide)
peptide: SRLEEELRKRLTE
modifications: lactam 5-9; not fully specified (N-terminus, C-terminus)
notes: also called SD15194
For orientation: EC50 means the midpoint of the concentration-response curve. A low value points to higher potency in that assay. Consider B3, for which, in experiment [2], the Bottom was 0.159, the LogEC50 is 0.776, the Span stood at 1.27 and the Top is 1.43. Also, it took 5.97 nM to reach a half-maximal effect in experiment [3] (EC50). Besides, in experiment [1], the dissociation constant (Kd) came out at 0.0376 nM, the koff turned out to be 0.00067 s⁻¹ and the on-rate constant (kon) turned out to be 1.78e+07 M⁻¹ s⁻¹.

B4: Ac-Ser-Arg-Leu-Glu-Glu-Glu-Leu-Arg-(cyclo9)Lys-Arg-Leu-Thr-(cyclo13)Glu-NH2 (peptide)
peptide: Ac-SRLEEELRKRLTE-NH2
modifications: lactam 9-13
SMILES: CC(=O)N[C@@H](CO)C(=O)N[C@@H](CCCNC(=N)N)C(=O)N[C@@H](CC(C)C)C(=O)N[C@@H](CCC(=O)O)C(=O)N[C@@H](CCC(=O)O)C(=O)N[C@@H](CCC(=O)O)C(=O)N[C@@H](CC(C)C)C(=O)N[C@@H](CCCNC(=N)N)C(=O)N[C@H]1CCCCNC(=O)CC[C@@H](C(N)=O)NC(=O)[C@H]([C@@H](C)O)NC(=O)[C@H](CC(C)C)NC(=O)[C@H](CCCNC(=N)N)NC1=O
notes: Cyclic ALFA tag; also called SD15193
In experiment [2], B4 came in with a Bottom of 0.145, a LogEC50 of 0.782, a Span of 1.29 and a Top of 1.44. Besides, the EC50 in experiment [3] worked out at 6.05 nM. In addition, in experiment [1], binding was characterised by a dissociation constant (Kd) of 0.0556 nM, the off-rate (koff) worked out at 0.00109 s⁻¹ and the on-rate constant (kon) was 1.95e+07 M⁻¹ s⁻¹.

B5: Ac-Ser-Arg-Leu-Glu-(cyclo5)Asp-Glu-Leu-Arg-(cyclo9)Lys-Arg-Leu-Thr-Glu-NH2 (peptide)
peptide: Ac-SRLEDELRKRLTE-NH2
modifications: lactam 5-9
SMILES: CC(=O)N[C@@H](CO)C(=O)N[C@@H](CCCNC(=N)N)C(=O)N[C@@H](CC(C)C)C(=O)N[C@@H](CCC(=O)O)C(=O)N[C@H]1CC(=O)NCCCC[C@@H](C(=O)N[C@@H](CCCNC(=N)N)C(=O)N[C@@H](CC(C)C)C(=O)N[C@H](C(=O)N[C@@H](CCC(=O)O)C(N)=O)[C@@H](C)O)NC(=O)[C@H](CCCNC(=N)N)NC(=O)[C@H](CC(C)C)NC(=O)[C@H](CCC(=O)O)NC1=O
notes: Cyclic ALFA tag; also called SD15196
Take B5: in experiment [2], the Bottom was found to be 0.0167, the LogEC50 was 2.58, the Span is 1.41 and the Top is 1.43. For the same molecule, the response in experiment [3] was half-maximal at 377 nM (EC50). In experiment [1], this molecule showed an equilibrium dissociation constant (Kd) of 0.436 nM, an off-rate constant (koff) of 0.0079 s⁻¹ and an association rate constant (kon) of 1.81e+07 M⁻¹ s⁻¹.

B6: Ac-Ser-Arg-Leu-Glu-(cyclo5)Glu-Glu-Leu-(cyclo8)Lys-Arg-Arg-Leu-Thr-Glu-NH2 (peptide)
peptide: Ac-SRLEEELKRRLTE-NH2
modifications: lactam 5-8
SMILES: CC(=O)N[C@@H](CO)C(=O)N[C@@H](CCCNC(=N)N)C(=O)N[C@@H](CC(C)C)C(=O)N[C@@H](CCC(=O)O)C(=O)N[C@H]1CCC(=O)NCCCC[C@@H](C(=O)N[C@@H](CCCNC(=N)N)C(=O)N[C@@H](CCCNC(=N)N)C(=O)N[C@@H](CC(C)C)C(=O)N[C@H](C(=O)N[C@@H](CCC(=O)O)C(N)=O)[C@@H](C)O)NC(=O)[C@H](CC(C)C)NC(=O)[C@H](CCC(=O)O)NC1=O
notes: Cyclic ALFA tag; also called SD15192
B6: in experiment [2], the Bottom is 0.152, the LogEC50 amounted to 0.776, the Span was 1.2 and the Top was 1.35. This molecule had an EC50 in experiment [3] of 5.98 nM. Also, in experiment [1], binding was put at a Kd of 0.0551 nM, the koff worked out at 0.000577 s⁻¹ and the kon was 1.05e+07 M⁻¹ s⁻¹.

B7: Ac-Ser-Arg-Leu-Glu-Glu-Glu-Leu-Arg-Arg-Arg-Leu-Thr-Glu-NH2 (peptide)
peptide: Ac-SRLEEELRRRLTE-NH2
notes: Linear ALFA tag; also called SD15197
In experiment [2], B7 showed a Bottom of 0.097, a LogEC50 of 0.414, a Span of 1.29 and a Top of 1.39. Also, the half-maximal effective concentration (EC50) in experiment [3] was determined as 2.6 nM. Further, in experiment [1], the Kd was 0.0117 nM, the koff was 0.000593 s⁻¹ and the kon was found to be 5.05e+07 M⁻¹ s⁻¹.

B8: Ac-Pro-Ser-Arg-Leu-Glu-(cyclo6)Glu-Glu-Leu-Arg-(cyclo10)dLys-Arg-Leu-Thr-Glu-NH2 (peptide)
peptide: Ac-PSRLEEELR[dK]RLTE-NH2
modifications: lactam 6-10
SMILES: CC(=O)N1CCC[C@H]1C(=O)N[C@@H](CO)C(=O)N[C@@H](CCCNC(=N)N)C(=O)N[C@@H](CC(C)C)C(=O)N[C@@H](CCC(=O)O)C(=O)N[C@H]1CCC(=O)NCCCC[C@H](C(=O)N[C@@H](CCCNC(=N)N)C(=O)N[C@@H](CC(C)C)C(=O)N[C@H](C(=O)N[C@@H](CCC(=O)O)C(N)=O)[C@@H](C)O)NC(=O)[C@H](CCCNC(=N)N)NC(=O)[C@H](CC(C)C)NC(=O)[C@H](CCC(=O)O)NC1=O
notes: Cyclic ALFA tag; also called SD15808
In experiment [1], B8 came in with a Kd of 0.038 nM, an off-rate (koff) of 0.000513 s⁻¹ and a kon of 1.35e+07 M⁻¹ s⁻¹.

B9: Ac-Pro-Ser-Arg-Leu-(cyclo5)Glu-Glu-Glu-Leu-(cyclo9)Lys-Arg-Arg-Leu-Thr-Glu-NH2 (peptide)
peptide: Ac-PSRLEEELKRRLTE-NH2
modifications: lactam 5-9
SMILES: CC(=O)N1CCC[C@H]1C(=O)N[C@@H](CO)C(=O)N[C@@H](CCCNC(=N)N)C(=O)N[C@@H](CC(C)C)C(=O)N[C@H]1CCC(=O)NCCCC[C@@H](C(=O)N[C@@H](CCCNC(=N)N)C(=O)N[C@@H](CCCNC(=N)N)C(=O)N[C@@H](CC(C)C)C(=O)N[C@H](C(=O)N[C@@H](CCC(=O)O)C(N)=O)[C@@H](C)O)NC(=O)[C@H](CC(C)C)NC(=O)[C@H](CCC(=O)O)NC(=O)[C@H](CCC(=O)O)NC1=O
notes: Cyclic ALFA tag; also called SD15806
In experiment [1], B9 displayed an equilibrium dissociation constant (Kd) of 1.43 nM, an off-rate (koff) of 4.94 s⁻¹ and an on-rate (kon) of 3.44e+09 M⁻¹ s⁻¹.
